How the values were obtained:
[1] = biological target: T1, cyno CD123 ECD displayed on pDisplay-transfected cells (cynomolgus monkey); test: MSD-CAT, cynoCD123 cells, assay-2; apparent KD (bivalent)
T1 construct: ECD anchored on the surface of stably transfected HEK293 cells; also called cynoCD123 SP1 cells; cynoCD123 cells
T1 chain: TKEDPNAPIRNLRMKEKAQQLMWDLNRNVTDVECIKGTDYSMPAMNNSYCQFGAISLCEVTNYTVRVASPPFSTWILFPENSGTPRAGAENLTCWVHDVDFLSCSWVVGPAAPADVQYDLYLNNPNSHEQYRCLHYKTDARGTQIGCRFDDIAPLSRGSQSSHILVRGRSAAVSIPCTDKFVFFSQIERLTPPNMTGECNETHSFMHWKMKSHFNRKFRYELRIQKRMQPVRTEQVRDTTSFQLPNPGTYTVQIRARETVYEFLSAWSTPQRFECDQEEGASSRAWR

[2] = biological target: T2, Recombinant human CD123 SP1 ECD-His tag protein (human, UniProt P26951 20-305); test: SPR ProteOn, captured mAb
T2 construct: bought from R&D Systems (#301-R3/CF); biotinylated for some assays; also called rhCD123 SP1; huCD123 ECD SP1
T2 sequence: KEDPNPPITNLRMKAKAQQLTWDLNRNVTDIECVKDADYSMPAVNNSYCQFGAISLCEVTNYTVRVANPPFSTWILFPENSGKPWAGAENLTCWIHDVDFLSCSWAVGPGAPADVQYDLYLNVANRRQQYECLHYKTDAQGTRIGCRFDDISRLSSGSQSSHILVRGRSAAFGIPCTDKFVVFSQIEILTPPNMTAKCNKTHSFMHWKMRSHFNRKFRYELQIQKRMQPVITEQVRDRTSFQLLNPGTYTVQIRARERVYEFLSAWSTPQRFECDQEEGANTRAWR

B1: I3RB18 (antibody, IgG1, V domains shown)
VH: EVQLVQSGAEVKKPGESLKISCKGSGYSFTSYWISWVRQMPGKGLEWMGIIDPSDSDTRYSPSFQGQVTISADKSISTAYLQWSSLKASDTAMYYCARGDGSTDLDYWGQGTLVTVSS
VL: EIVLTQSPGTLSLSPGERATLSCRASQSVSSSYLAWYQQKPGQAPRLLIYGASSRATGIPDRFSGSGSGTDFTLTISRLEPEDFAVYYCQQDYGFPWTFGQGTKVEIK
notes: IgG1; also called 13RB18; mAb I3RB18
Kd [1]: > 11.9 nM
Kd [2]: 0.57 nM
koff [2]: 0.00082 s⁻¹
kon [2]: 1.44e+06 M⁻¹ s⁻¹

Reference: US20160068605A1 (Janssen / Centocor, published 2016)
